Measurements published in article PMC7563181.

Columns and labels:
[1] = biological target: membrane-bound GFP (pHR_EGFPligand)
[2] = biological target: membrane-bound GFP (pHR_EGFPligand); remark: listed apart in the source
[3] = biological target: membrane-bound GFP (pHR_EGFPligand); remark: listed apart in the source
[4] = biological target: membrane-bound GFP (pHR_EGFPligand); remark: listed apart in the source
[5] = biological target: membrane-bound GFP (pHR_EGFPligand); remark: listed apart in the source
[6] = biological target: membrane-bound GFP (pHR_EGFPligand); remark: listed apart in the source
[7] = biological target: membrane-bound GFP (pHR_EGFPligand); remark: listed apart in the source

% dsRed-Express-positive receiver cells after co-culture with antigen-expressing sender cells at three sender-receiver ratios (5:1, 1:1, 1:5), flow cytometry after 48 h; 7.6% to 40.1% [1]: 40.1% | synNotch-mediated fluorophore expression, bulk population before clonal expansion (differs from Table 2) [2]: 34.8% | synNotch-mediated fluorophore expression, clonal cell line (differs from Table 2) [2]: 73.6% | Overall efficiency of indel formation at the CXCR4 locus (TIDE) after activation of receiver cells by GFP sender cells (1:1, 60 min), Experiment 1 [3]: 34.5% | Overall efficiency of indel formation at the CXCR4 locus (TIDE) after activation of receiver cells by GFP sender cells (1:1, 60 min), Experiment 2 [3]: 41.3% | Overall efficiency of indel formation at the CXCR4 locus (TIDE) after activation of receiver cells by GFP sender cells (1:1, 60 min), Experiment 3 [3]: 45.4% | % Activation in Bulk Population (dsRed-Express, 60 min, sender:receiver 1:1) [4]: 31.3% | % Activation in Clonal Cell Lines (dsRed-Express, 60 min, sender:receiver 1:1) [4]: 73.5% | Indel formation frequency at the CXCR4 locus (TIDE) after activation by GFP sender cells, receiver cells kept in low FBS (G1 arrest) [5]: 37.4% | Indel formation frequency at the CXCR4 locus (TIDE) after activation by GFP sender cells, receiver cells kept without FBS (G1 arrest) [5]: 31.4% | Indel formation frequency at the CXCR4 locus (TIDE) after activation by GFP sender cells, receiver cells treated with nocodazole (G2/M arrest) [5]: 34.4% | % dsRed-Express-positive receiver cells after 10, 30, 60, 120 and 180 min of contact with antigen-expressing sender cells (ratio 1:1), flow cytometry 48 h later; 7.3% to 37.3% [6]: 37.3% | % dsRed-Express-positive cells at the first sort of the transduced bulk receiver population after activation with antigen-expressing cells (flow cytometry) [7]: 10.3%
Substance: LaG17_synNotch_TetRVP64 (synNotch receptor against GFP with a tTA intracellular domain)
